According to US20160340421A1 (Regeneron, published 2016):

Key:
[1] = molecular target: T1, Human GDF8 homodimer (mature human Growth and Differentiation Factor-8) (human, UniProt O14793 267-375); test: SPR, antibody captured, buffer without BSA
T1 construct: also called hGDF8; myostatin
T1 sequence: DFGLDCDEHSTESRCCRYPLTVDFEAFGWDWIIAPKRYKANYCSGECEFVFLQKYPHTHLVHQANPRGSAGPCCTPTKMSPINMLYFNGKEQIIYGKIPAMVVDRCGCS
Method: Equilibrium dissociation constants (KD values) for antigen binding to selected antibodies were determined by surface kinetics using a real-time biosensor surface plasmon resonance assay (BIACORE™ 2000). Each selected antibody was captured on either a goat anti-mouse IgG polyclonal antibody surface or a goat anti-hFc polyclonal antibody (Jackson Immuno Research Lab) surface created through direct chemical coupling to a BIACORE™ chip to form a captured antibody surface. Human GDF8 homodimer, hGDF11 homodimer, or hGDF5 homodimer at 25 nM was injected over the captured antibody surfaces, and antigen-antibody binding and dissociation were monitored in real time at room temperature. Kinetic analysis was performed to calculate KD, dissociation rate constants (kd), association rate constants (ka) and half-life of antigen/antibody complex dissociation (Table 2).

[2] = molecular target: T1, Human GDF8 homodimer (mature human …); test: SPR Biacore 3000, buffer without BSA
[3] = molecular target: T2, GDF8/TGFβ[48-72] chimera (T48): GDF8.1-47.TGFβ1.49-76.GDF8.73-109 (human GDF8 with human TGFβ-1 sequence); test: Western blot of CHO.hFurin supernatant
T2 construct: used as CHO conditioned medium / supernatant; also called GDF8/TGFβ-1 chimeric construct
T2 chain: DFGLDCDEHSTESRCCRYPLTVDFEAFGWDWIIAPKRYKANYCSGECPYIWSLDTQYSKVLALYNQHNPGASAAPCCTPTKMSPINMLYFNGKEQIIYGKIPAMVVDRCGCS
Method: (§1) The various chimeric GDF8 pro-proteins were transiently transfected in an engineered stable CHO.hFurin cell line. A similar Western Blot analysis as described above was used to detect the binding of various anti-hGDF8 antibodies to each of the chimeric GDF8. Briefly, […] of CHO supernatant were loaded onto each lane of an SDS-PAGE (non-reducing or reducing) gel and electroblotted onto a PVDF membrane. The membrane was then incubated with an anti-GDF8 antibody at 2 μg/ml followed by exposure to the appropriate secondary antibody conjugated to HRP.

[4] = molecular target: T3, B48 chimera: GDF8.1-47.BMP2.48-77.GDF8.73-109; test: Western blot of CHO.hFurin supernatant
T3 construct: CHO.hFurin supernatant
T3 chain: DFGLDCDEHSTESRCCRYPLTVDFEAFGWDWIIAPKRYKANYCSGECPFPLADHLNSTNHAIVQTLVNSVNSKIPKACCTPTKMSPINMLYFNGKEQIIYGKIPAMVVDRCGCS
Method: as §1

[5] = molecular target: T1, Human GDF8 homodimer (mature human …); test: cell-based or functional assay

B1: 8D12 (antibody, V domains shown)
VH: QVQLVESGGGVVQPGRSLRLSCAASGFTFSRYGIHWVRQAPGKGLEWVAVISYDGSDEYYVDSVKGRFSISRDNSKNTLYLQMNSLRPADSAVYYCVKGDLELGFDYWGQGTLVTVSS
VL: DIVMTQAAPSIPVIPGESVSMSCRSSKSLLYSNGHTYVYWFVQRPGQSPQLLIYRMSNLASGVPDRFSGSGSGTAFTLRISRVEAEDVGVYYCMQNLEFPLTFGAGTKLELK
notes: also called antibody 8D12; 8D12 Antibody
With B1 the Kd [1] was 0.016 nM, the T1/2 [1] was 14 h and the Kd [2] was 0.071 nM. For the same binder, the T1/2 [2] was 2.32 h, the binding result [3] was “no binding (tested: 2 µg/ml)” and the binding result [4] was “no binding (tested: 2 µg/ml)”. For the same binder, the “IC50, luciferase bioassay, 0.5 nM GDF8” value [5] was 3.11 nM and the “IC50, luciferase bioassay, 1 nM GDF8” value [5] was 5.55 nM.
